Data on 7 molecules can be found in PMC3675490.

The target in one data set is HfqFL F42S (Escherichia coli, UniProt P0A6X3 1-102, F42S). As to the kind of experiment: fluorescence polarization. On the technique in general: Fluorescence polarisation rises when a labelled molecule tumbles more slowly, as on binding a larger partner.
For a further data set, the target named is HfqFL Y25A (Escherichia coli, UniProt P0A6X3 1-102, Y25A). Briefly: fluorescence polarization.
For a further data set, the target named is HfqFL WT (Escherichia coli, UniProt P0A6X3 1-102). Briefly: EMSA. Background: In EMSA bound probe runs differently from free probe, usually more slowly.
Data set [1] addresses T1, Hfq65 R16A/R17A (Escherichia coli, UniProt P0A6X3 1-65, R16A;R17A). As to the kind of experiment: NMR titration.
Data set [2] concerns the target T1, Hfq65 R16A/R17A. Briefly: NMR titration. The source holds these as a separate data set.
In data set [3] the target is T2, Hfq65 (Escherichia coli, UniProt P0A6X3 1-65). Briefly: X-ray crystallography.
Data set [4] has as its target T2, Hfq65. As to the kind of experiment: X-ray crystallography. The source holds these as a separate data set.

Read-outs that look alike come from different tables or passages of the source.

B1: rpoS-AC (ssRNA)
RNA: AACAACAAG
For B1, the binding result in the data set with HfqFL F42S was “binds”.

B2: AU6A (ssRNA)
RNA: AUUUUUUA
For B2, the binding result with HfqFL Y25A is given as “binds”.

B3: A7 (ssRNA)
RNA: AAAAAAA
B3: the binding result in the data set with HfqFL F42S was “binds”.

B4: rpoS-AA (ssRNA)
RNA: GGGAACAACAAGAAGUUAAGGCGGGGCAAAAAAUA
As for B4, the binding result with HfqFL WT is reported as “binds”.

B5: rpoS-AC (unlabeled) (ssRNA)
RNA: AACAACAAG
Regarding B5, in the data set with Hfq65 R16A/R17A [1], the binding result is “binds”.

B6: AU6A (unlabeled) (ssRNA)
RNA: AUUUUUUA
Turning to B6, the binding result with Hfq65 R16A/R17A [2] and in the data set with Hfq65 [3] was “binds” each time.

B7: A7 (unlabeled) (ssRNA)
RNA: AAAAAAA
Consider B7, for which the binding result with Hfq65 [4] is “binds”.
